Data on 1 substance can be found in patent US20140072613A1, “Compositions and Methods for Treating Cutaneous Scarring” (priority 2012, published 2014).

Targets include IR(h), activated (human) (UniProt P06213); EGFR(L858R)(h) (human) (UniProt P00533); Met(D1246N)(h) (human) (UniProt P08581); ALK(h) (human) (UniProt Q9UM73); Tie2(h) (human) (UniProt Q02763); CaMKIδ(h) (human) (UniProt Q8IU85); VRK2(h) (human) (UniProt Q86Y07); Rsk1(h) (human) (UniProt Q15418); Abl(Y253F)(h) (human) (UniProt P00519).
What all share (assay): cell-based or functional assay
A further experiment concerns the target T1, TSSK1(h) (human) (UniProt Q9BXA7).
T1 sequence (looked up): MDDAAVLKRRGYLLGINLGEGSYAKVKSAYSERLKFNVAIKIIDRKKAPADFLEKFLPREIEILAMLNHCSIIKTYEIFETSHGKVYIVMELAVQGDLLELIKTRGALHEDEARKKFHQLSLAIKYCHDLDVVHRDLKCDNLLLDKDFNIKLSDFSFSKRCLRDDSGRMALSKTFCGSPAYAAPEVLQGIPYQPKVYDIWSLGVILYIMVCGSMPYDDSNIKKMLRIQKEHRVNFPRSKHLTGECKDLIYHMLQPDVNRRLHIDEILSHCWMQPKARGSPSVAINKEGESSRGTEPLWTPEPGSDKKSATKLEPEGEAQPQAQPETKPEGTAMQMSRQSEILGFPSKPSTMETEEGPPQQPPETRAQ

Another experiment concerns the target T2, Mer(h) (human) (UniProt Q12866).
T2 sequence (looked up): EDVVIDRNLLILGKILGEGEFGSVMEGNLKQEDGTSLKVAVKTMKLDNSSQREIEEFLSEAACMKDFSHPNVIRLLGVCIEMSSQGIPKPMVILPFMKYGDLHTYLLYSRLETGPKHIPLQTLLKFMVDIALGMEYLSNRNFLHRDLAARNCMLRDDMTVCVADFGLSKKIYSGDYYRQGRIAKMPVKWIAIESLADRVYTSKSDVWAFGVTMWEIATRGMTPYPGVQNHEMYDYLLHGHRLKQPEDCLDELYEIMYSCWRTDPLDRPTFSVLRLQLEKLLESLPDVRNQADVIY

For a further experiment, the target named is T3, SAPK4(h) (human) (UniProt O15264).
T3 sequence (looked up): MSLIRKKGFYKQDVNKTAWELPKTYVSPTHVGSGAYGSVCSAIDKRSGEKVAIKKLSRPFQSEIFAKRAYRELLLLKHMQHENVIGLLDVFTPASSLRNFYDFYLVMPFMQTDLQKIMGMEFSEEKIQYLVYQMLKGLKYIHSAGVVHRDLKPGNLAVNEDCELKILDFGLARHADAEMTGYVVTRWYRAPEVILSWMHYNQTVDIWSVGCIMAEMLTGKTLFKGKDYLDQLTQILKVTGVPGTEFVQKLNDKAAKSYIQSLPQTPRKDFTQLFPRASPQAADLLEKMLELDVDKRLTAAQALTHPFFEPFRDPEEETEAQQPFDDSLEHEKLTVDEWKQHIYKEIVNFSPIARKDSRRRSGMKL

The next experiment addresses T4, ARK5(h) (human) (UniProt O60285).
T4 sequence (looked up): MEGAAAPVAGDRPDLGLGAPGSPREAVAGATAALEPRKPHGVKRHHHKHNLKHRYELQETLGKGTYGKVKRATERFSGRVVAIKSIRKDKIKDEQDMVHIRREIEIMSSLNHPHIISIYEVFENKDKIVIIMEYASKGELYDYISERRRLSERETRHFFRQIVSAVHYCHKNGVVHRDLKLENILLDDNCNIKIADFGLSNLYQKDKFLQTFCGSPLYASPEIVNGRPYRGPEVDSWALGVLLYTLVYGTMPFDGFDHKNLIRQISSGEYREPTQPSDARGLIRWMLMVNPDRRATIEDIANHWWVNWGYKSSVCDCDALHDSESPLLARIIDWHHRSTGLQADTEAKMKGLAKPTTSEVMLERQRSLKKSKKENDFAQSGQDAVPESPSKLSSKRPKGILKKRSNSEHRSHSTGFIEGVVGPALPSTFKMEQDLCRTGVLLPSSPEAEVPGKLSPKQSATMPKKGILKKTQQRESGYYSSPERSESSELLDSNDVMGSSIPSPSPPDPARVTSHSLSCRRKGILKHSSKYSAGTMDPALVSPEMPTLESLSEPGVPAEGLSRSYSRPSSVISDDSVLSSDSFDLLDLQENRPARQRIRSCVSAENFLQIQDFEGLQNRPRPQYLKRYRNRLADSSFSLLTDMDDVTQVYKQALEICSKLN

Experiment [1] concerns the target EGFR(T790M,L858R)(h) (human) (UniProt P00533).
The next experiment has as its target T5, EphA5(h) (human) (UniProt P54756).
T5 sequence (looked up): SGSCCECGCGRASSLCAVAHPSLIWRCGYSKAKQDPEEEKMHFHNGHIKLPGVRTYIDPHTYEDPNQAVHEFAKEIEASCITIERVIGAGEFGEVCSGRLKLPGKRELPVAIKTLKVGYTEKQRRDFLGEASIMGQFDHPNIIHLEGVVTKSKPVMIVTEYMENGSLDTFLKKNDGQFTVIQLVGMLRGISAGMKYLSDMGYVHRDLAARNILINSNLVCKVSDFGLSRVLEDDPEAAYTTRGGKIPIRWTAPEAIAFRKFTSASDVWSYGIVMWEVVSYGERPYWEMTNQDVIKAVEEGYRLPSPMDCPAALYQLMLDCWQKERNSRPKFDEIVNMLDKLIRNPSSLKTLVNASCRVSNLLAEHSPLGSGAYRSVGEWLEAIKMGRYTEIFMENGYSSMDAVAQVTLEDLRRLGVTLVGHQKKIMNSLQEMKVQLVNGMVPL

Sequence of VRK2(h) (human) (Q86Y07 whole entry): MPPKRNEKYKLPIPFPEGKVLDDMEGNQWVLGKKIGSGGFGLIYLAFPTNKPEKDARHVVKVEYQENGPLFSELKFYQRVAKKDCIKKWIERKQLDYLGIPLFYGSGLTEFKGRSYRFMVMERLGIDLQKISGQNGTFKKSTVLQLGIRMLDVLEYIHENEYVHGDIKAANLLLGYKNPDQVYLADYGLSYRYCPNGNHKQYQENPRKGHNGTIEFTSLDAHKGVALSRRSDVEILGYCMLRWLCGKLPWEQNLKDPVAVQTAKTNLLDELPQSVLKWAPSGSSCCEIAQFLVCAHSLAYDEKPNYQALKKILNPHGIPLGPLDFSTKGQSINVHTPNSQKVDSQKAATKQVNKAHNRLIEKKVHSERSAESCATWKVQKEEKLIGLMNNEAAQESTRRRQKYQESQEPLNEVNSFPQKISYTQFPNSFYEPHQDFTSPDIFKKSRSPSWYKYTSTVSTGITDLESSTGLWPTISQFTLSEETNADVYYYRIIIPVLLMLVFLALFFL
Sequence of Abl(Y253F)(h) (human) (P00519 27-1130 Y253F limits assumed): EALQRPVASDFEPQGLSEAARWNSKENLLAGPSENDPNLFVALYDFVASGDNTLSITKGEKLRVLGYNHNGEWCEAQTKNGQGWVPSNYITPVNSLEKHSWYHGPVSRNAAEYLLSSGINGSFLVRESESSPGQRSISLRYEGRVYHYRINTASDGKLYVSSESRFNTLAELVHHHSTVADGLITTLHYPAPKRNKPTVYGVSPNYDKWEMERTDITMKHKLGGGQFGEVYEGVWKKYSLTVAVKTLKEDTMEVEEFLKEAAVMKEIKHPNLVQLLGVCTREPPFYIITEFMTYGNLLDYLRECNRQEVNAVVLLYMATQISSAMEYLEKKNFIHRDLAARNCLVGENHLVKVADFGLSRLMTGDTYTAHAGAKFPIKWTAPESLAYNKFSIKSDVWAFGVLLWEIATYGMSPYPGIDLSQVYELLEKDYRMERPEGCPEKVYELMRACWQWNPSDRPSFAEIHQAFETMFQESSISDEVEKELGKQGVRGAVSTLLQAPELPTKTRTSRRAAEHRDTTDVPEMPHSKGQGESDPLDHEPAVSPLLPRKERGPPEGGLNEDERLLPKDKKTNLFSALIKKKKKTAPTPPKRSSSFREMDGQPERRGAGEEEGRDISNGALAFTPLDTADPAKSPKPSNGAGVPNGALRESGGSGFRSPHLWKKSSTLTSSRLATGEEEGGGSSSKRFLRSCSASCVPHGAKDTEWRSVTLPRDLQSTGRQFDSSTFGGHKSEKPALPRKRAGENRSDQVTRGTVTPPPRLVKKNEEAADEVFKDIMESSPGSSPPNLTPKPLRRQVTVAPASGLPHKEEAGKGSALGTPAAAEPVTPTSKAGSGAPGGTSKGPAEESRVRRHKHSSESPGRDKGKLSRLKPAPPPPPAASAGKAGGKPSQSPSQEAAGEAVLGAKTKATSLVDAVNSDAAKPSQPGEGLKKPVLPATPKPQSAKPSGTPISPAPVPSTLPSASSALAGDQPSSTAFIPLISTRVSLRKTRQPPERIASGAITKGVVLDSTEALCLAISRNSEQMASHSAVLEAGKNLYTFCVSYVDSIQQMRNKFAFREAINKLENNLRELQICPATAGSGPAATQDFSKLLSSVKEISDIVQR
Sequence of Rsk1(h) (human) (Q15418 whole entry): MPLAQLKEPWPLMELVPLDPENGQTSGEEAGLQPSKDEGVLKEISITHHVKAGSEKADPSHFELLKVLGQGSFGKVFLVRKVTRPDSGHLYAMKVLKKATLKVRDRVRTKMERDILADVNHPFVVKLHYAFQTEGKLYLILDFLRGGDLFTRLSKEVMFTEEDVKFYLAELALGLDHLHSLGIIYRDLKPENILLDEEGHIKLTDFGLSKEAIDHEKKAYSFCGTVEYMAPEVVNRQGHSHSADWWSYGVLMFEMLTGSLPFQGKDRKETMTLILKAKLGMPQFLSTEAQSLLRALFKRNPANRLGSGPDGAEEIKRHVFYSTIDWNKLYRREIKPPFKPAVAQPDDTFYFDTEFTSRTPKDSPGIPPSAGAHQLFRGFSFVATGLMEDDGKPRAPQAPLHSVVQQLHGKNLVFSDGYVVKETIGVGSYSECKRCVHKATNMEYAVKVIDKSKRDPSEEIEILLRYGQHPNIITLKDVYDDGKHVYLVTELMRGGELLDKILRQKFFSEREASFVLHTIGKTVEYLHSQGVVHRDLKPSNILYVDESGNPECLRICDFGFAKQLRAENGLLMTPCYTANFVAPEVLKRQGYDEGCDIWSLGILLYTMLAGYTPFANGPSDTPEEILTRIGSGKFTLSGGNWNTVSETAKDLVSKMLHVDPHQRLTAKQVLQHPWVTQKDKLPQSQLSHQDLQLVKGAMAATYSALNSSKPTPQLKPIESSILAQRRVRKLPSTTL
Sequence of IR(h), activated (human) (P06213 1005-1310 limits assumed): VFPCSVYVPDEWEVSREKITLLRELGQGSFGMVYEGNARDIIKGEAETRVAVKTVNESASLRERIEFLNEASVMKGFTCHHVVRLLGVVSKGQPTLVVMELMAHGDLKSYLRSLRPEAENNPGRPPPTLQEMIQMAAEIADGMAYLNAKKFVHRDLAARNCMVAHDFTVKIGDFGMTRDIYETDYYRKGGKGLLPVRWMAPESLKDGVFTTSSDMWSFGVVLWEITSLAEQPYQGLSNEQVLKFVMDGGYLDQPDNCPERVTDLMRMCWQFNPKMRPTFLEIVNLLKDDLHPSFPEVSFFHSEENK
Sequence of ALK(h) (human) (Q9UM73 1058-1620 limits assumed): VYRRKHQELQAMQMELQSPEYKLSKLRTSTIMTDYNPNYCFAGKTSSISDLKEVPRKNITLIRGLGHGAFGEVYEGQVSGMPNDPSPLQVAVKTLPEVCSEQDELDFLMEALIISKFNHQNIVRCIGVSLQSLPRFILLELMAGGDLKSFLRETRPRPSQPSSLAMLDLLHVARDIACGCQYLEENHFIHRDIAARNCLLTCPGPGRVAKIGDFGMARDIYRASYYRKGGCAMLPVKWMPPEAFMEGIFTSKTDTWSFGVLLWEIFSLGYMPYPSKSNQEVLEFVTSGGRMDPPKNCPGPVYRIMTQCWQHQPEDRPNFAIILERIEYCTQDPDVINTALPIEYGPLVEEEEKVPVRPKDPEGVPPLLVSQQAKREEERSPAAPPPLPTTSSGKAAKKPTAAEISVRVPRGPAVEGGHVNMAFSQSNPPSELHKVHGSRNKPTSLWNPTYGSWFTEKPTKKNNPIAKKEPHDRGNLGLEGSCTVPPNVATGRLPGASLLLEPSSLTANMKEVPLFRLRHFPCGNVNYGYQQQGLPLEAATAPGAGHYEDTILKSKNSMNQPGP
Sequence of Tie2(h) (human) (Q02763 771-1124 limits assumed): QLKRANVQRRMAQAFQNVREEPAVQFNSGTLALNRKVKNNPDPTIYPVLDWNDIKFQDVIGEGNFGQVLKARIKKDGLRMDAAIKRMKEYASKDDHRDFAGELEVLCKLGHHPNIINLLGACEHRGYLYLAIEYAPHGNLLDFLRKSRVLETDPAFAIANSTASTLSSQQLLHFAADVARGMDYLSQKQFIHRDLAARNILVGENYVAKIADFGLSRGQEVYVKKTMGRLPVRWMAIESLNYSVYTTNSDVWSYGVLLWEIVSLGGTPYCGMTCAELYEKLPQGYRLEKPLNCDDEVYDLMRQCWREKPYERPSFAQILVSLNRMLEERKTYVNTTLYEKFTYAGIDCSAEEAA
Sequence of CaMKIδ(h) (human) (Q8IU85 whole entry, stated change not applied): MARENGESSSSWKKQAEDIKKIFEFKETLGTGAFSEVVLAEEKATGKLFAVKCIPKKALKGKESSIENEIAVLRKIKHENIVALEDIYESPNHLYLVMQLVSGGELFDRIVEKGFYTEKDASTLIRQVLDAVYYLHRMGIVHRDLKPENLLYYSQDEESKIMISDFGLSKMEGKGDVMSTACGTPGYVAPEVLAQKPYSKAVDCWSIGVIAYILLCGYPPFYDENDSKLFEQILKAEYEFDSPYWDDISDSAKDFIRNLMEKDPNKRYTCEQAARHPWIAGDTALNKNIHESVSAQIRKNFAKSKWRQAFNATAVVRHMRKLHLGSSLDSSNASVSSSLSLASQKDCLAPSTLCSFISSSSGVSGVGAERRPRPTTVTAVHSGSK

For the substance MMI-0500 (peptide), the % activity, 100 µM with TSSK1(h) (human) turned out to be 46%; with IR(h), activated (human), 90%; with EGFR(L858R)(h) (human), 26%; with Met(D1246N)(h) (human), 90%; with ALK(h) (human), 12%; in the experiment with Mer(h) (human), 17%. The % activity, 100 µM with Tie2(h) (human) is 22%; with CaMKIδ(h) (human), 0%; with VRK2(h) (human) it was 169%; in the experiment with Rsk1(h) (human) it was 34%; with SAPK4(h) (human), 48%; with ARK5(h) (human), 20%. The % activity, 100 µM in [1] came to 53%; in the experiment with EphA5(h) (human) it was 42%; in the experiment with Abl(Y253F)(h) (human), 29%.
